Measurements from US20230114801A1 (SYSTIMMUNE, published 2023).

B1: human CD3 (receptor)
chain 1: DGNEEMGGITQTPYKVSISGTTVILTCPQYPGSEILWQHNDKNIGGDEDDKNIGSDEDHLSLKEFSELEQSGYYVCYPRGSKPEDANFYLYLRARVCENCMEMD
chain 2: FKIPIEELEDRVFVNCNTSITWVEGTVGTLLSDITRLDLGKRILDPRGIYRCNGTDIYKDKESTVQVHYRMCQSCVELDPATVA
notes: also called His-tagged human CD3; human CD3 (Acro CDD-H52W1)
B2: SI-75P5 (other)
chain 1: EVQLQESGGGLVQAGDSLSLSCLVSGRSFNSYTMGWFRQAPGKEREFVAAILWSGPTTYYADSVKGRFTISRDNAKNTVYLQMNSLKPEDTAVYYCAAALGVLVLAPGNVYSYWGQGTQVTVSSGGGGSGGGGSEVQLVESGGGLVQPGGSLRLSCAASGFTISTNAMSWVRQAPGKGLEWIGVITGRDITYYASWAKGRFTISRDNSKNTLYLQMNSLRAEDTAVYYCARDGGSSAITSNNIWGQGTLVTVSSASTKGPSVFPLAPSSKSTSGGTAALGCLVKDYFPEPVTVSWNSGALTSGVHTFPAVLQSSGLYSLSSVVTVPSSSLGTQTYICNVNHKPSNTKVDKRVEPKSCDKTHTCPPCPAPEAAGGPSVFLFPPKPKDTLMISRTPEVTCVVVDVSHEDPEVKFNWYVDGVEVHNAKTKPREEQYNSTYRVVSVLTVLHQDWLNGKEYKCAVSNKALPAPIEKTISKAKGQPREPQVYTLPPSRDELTKNQVSLSCAVKGFYPSDIAVEWESNGQPENNYKTTPPVLDSDGSFFLVSKLTVDKSRWQQGNVFSCSVMHEALHNHYTQKSLSLSPGGGGGSGGGGSDVVMTQSPSSVSASVGDRVTITCQASQNIRTYLSWYQQKPGKAPKLLIYAAANLASGVPSRFSGSGSGTDFTLTISDLEPGDAATYYCQSTYLGTDYVGGAFGGGTKLTVLGGGGSGGGGSGGGGSGGGGSEVQLVESGGGLVQPGGSLRLSCTASGFTISSYHMQWVRQAPGKGLEYIGTISSGGNVYYASSARGRFTISRPSSKNTVDLQMNSLRAEDTAVYYCARDSGYSDPMWGQGTLVTVSS
chain 2: QVQLVQSGGGLVQAGGSLSLSCAFSGRTFSMYTMGWFRQAPGKEREFVAANRGRGLSPDIADSVNGRFTISRDNAKNTLYLQMDSLKPEDTAVYYCAADLQYGSSWPQRSSAEYDYWGQGTTVTVSSGGGGSGGGGSDVVMTQSPSTLSASVGDRVTINCQASESISSWLAWYQQKPGKAPKLLIYEASKLASGVPSRFSGSGSGTEFTLTISSLQPDDFATYYCQGYFYFISRTYVNSFGGGTKVEIKRTVAAPSVFIFPPSDEQLKSGTASVVCLLNNFYPREAKVQWKVDNALQSGNSQESVTEQDSKDSTYSLSSTLTLSKADYEKHKVYACEVTHQGLSSPVTKSFNRGECGGDKTHTCPPCPAPEAAGGPSVFLFPPKPKDTLMISRTPEVTCVVVDVSHEDPEVKFNWYVDGVEVHNAKTKPREEQYNSTYRVVSVLTVLHQDWLNGKEYKCAVSNKALPAPIEKTISKAKGQPREPQVYTLPPSRDELTKNQVSLWCLVKGFYPSDIAVEWESNGQPENNYKTTPPVLDSDGSFFLYSKLTVDKSRWQQGNVFSCSVMHEALHNRFTQKSLSLSPGGGGGSGGGGSDIQMTQSPSTLSASVGDRVTITCQASQSISSHLNWYQQKPGKAPKLLIYKASTLASGVPSRFSGSGSGTEFTLTISSLQPDDFATYYCQQGYSWGNVDNVFGGGTKVTVLGGGGSGGGGSGGGGSGGGGSEVQLLESGGGLVQPGGSLSLSCAASGFSFSSGYDMCWVRQAPGKGLEWIACIAAGSAGITYDANWAKGRFTISRDNSKNTLYLQMNSLRAEDTAVYYCARSAFSFDYAMDLWGQGTLVTVSS
notes: penta-miniGNC; D1 αEGFR VHH, D2 αHER3 VHH, D3 αCD3 (Fab), D4 α4-1BB, D5 αPD-L1
B3: SI-75P8 (other)
chain 1: EVQLQESGGGLVQAGDSLSLSCLVSGRSFNSYTMGWFRQAPGKEREFVAAILWSGPTTYYADSVKGRFTISRDNAKNTVYLQMNSLKPEDTAVYYCAAALGVLVLAPGNVYSYWGQGTQVTVSSGGGGSGGGGSQVQLQESGGRLVQPGEPLSLTCKTSGIDLSSNAIGWVRQAPGKGLEWIGVIFGSGNTYYASWAKGRFTISRSTSTVYLKMNSLRSEDTAIYYCARGGYSSDIWGQGTLVTVSSASTKGPSVFPLAPSSKSTSGGTAALGCLVKDYFPEPVTVSWNSGALTSGVHTFPAVLQSSGLYSLSSVVTVPSSSLGTQTYICNVNHKPSNTKVDKRVEPKSCDKTHTCPPCPAPEAAGGPSVFLFPPKPKDTLMISRTPEVTCVVVDVSHEDPEVKFNWYVDGVEVHNAKTKPREEQYNSTYRVVSVLTVLHQDWLNGKEYKCAVSNKALPAPIEKTISKAKGQPREPQVYTLPPSRDELTKNQVSLSCAVKGFYPSDIAVEWESNGQPENNYKTTPPVLDSDGSFFLVSKLTVDKSRWQQGNVFSCSVMHEALHNHYTQKSLSLSPGGGGGSGGGGSQVQLQQSGPGLVKPSETLSITCTVSGFSLTNYGVHWIRQAPGKGLEWLGVIWSGGNTDYNTPFTSRFTITKDNSKNQVYFKLRSVRADDTAIYYCARALTYYDYEFAYWGQGTLVTVSSGGGGSGGGGSGGGGSGGGGSEIVLTQSPSTLSVSPGERATFSCRASQSIGTNIHWYQQKPGKPPRLLIKYASESISGIPDRFSGSGSGTEFTLTISSVQSEDFAVYYCQQNNNWPTTFGPGTKLTVL
chain 2: QVQLVQSGGGLVQAGGSLSLSCAFSGRTFSMYTMGWFRQAPGKEREFVAANRGRGLSPDIADSVNGRFTISRDNAKNTLYLQMDSLKPEDTAVYYCAADLQYGSSWPQRSSAEYDYWGQGTTVTVSSGGGGSGGGGSDPQLTQSPSSLSATVGQRVTINCQSSQSVAKNNNLAWFQQKPGKPPKLLIYSASTLAAGVPSRFSGSGSGTQFTLTITRVQSEDFATYYCSARDSGNIQSFGGGTRVEIKRTVAAPSVFIFPPSDEQLKSGTASVVCLLNNFYPREAKVQWKVDNALQSGNSQESVTEQDSKDSTYSLSSTLTLSKADYEKHKVYACEVTHQGLSSPVTKSFNRGECGGDKTHTCPPCPAPEAAGGPSVFLFPPKPKDTLMISRTPEVTCVVVDVSHEDPEVKFNWYVDGVEVHNAKTKPREEQYNSTYRVVSVLTVLHQDWLNGKEYKCAVSNKALPAPIEKTISKAKGQPREPQVYTLPPSRDELTKNQVSLWCLVKGFYPSDIAVEWESNGQPENNYKTTPPVLDSDGSFFLYSKLTVDKSRWQQGNVFSCSVMHEALHNRFTQKSLSLSPGGGGGSGGGGSQVQLQESGGGLVKPGGSLSLSCAASGFTFSSYWMSWVRQAPGKGLEWVANINRDGSASYYVDSVKGRFTISRDDAKNSLYLQMNSLRAEDTAVYYCARDRGVGYFDLWGRGTLVTVSSGGGGSGGGGSGGGGSQSALTQPASVSGSPGQSITISCTGTSSDVGGYNFVSWYQQHPGKAPKLMIYDVSDRPSGVSDRFSGSKSGNTASLIISGLQADDEADYYCSSYGSSSTHVIFGGGTKVTVL
notes: D1 αEGFR VHH, D2 αHER3 VHH, D3 αCD3* (Fab), D4 αEGFR scFv, D5 αHER3 scFv

Experiments:
SI-49P9 = target: T1, SI-49P9; experiment: BLI (Octet); conditions not stated
T1 construct: penta-miniGNC; D1 αCD3, D2 αCD19, D3 NKG2D receptor dimer, D4 41BBL, D5 αPD-L1
T1 sequence (chain, as listed by the source, chain 1 of 2): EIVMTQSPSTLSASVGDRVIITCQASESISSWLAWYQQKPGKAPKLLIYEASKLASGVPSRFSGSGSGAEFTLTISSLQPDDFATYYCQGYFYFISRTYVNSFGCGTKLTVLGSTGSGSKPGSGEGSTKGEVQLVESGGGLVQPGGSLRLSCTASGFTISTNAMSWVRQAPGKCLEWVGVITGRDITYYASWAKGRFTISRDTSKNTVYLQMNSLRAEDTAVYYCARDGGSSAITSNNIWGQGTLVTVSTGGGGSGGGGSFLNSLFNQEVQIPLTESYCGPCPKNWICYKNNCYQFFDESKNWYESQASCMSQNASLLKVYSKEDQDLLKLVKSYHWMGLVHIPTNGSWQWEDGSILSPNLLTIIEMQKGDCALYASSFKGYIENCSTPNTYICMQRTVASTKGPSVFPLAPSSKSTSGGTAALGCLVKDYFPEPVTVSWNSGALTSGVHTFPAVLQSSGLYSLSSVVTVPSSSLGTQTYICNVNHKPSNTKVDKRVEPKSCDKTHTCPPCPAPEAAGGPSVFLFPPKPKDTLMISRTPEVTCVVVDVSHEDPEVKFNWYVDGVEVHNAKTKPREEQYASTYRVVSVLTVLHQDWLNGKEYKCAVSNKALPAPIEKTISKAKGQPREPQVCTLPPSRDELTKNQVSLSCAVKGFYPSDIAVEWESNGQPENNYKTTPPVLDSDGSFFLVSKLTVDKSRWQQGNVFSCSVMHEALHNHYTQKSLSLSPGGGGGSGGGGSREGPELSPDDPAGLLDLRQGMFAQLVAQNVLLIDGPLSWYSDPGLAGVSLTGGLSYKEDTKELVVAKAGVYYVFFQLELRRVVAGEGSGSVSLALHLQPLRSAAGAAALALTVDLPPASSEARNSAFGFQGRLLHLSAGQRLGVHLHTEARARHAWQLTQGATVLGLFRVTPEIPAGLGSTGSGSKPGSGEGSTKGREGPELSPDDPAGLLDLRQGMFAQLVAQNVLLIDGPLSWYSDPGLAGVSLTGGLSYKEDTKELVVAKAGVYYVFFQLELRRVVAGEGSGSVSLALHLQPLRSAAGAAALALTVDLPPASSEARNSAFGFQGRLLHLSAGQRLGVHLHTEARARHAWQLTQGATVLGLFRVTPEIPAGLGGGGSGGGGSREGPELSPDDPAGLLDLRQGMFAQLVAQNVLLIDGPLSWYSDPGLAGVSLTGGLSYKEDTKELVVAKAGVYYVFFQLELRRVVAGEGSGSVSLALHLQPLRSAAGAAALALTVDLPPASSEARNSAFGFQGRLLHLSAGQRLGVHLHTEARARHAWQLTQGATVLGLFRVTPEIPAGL
T1 sequence (chain, as listed by the source, chain 2 of 2): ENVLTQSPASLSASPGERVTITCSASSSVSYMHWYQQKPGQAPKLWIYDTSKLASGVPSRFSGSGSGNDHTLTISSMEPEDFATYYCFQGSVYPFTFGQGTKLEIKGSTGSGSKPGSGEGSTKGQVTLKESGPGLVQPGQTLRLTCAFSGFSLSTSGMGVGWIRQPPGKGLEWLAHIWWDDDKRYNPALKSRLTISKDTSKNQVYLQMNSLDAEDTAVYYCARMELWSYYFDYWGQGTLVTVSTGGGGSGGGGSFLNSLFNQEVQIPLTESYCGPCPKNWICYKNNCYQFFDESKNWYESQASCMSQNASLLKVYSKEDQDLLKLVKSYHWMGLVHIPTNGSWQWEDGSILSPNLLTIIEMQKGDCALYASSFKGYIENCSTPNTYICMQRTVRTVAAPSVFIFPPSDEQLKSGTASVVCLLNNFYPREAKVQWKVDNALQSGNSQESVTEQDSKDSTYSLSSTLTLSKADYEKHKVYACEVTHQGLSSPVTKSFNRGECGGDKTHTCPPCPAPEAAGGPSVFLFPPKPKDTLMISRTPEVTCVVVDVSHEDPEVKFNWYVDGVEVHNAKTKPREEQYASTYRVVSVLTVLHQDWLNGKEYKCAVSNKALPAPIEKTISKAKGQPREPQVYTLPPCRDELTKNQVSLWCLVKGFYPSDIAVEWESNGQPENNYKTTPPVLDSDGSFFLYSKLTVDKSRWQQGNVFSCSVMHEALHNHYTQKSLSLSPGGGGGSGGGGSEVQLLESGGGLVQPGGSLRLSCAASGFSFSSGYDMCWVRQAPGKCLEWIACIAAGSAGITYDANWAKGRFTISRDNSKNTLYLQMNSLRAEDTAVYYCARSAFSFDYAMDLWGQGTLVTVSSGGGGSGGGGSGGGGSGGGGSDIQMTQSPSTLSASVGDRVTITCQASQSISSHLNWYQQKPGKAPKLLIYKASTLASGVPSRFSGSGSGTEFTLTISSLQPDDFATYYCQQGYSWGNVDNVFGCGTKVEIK

SI-75P4 = target: T2, SI-75P4; experiment: BLI (Octet), binder on AHC sensor, 100 nM human antigen, 1:1 fit
T2 construct: penta-miniGNC; D1 αEGFR, D2 αHER3, D3 αCD3 (Fab), D4 41BBL (ligand of the 4-1BB receptor), D5 αPD-L1
T2 sequence (chain, as listed by the source): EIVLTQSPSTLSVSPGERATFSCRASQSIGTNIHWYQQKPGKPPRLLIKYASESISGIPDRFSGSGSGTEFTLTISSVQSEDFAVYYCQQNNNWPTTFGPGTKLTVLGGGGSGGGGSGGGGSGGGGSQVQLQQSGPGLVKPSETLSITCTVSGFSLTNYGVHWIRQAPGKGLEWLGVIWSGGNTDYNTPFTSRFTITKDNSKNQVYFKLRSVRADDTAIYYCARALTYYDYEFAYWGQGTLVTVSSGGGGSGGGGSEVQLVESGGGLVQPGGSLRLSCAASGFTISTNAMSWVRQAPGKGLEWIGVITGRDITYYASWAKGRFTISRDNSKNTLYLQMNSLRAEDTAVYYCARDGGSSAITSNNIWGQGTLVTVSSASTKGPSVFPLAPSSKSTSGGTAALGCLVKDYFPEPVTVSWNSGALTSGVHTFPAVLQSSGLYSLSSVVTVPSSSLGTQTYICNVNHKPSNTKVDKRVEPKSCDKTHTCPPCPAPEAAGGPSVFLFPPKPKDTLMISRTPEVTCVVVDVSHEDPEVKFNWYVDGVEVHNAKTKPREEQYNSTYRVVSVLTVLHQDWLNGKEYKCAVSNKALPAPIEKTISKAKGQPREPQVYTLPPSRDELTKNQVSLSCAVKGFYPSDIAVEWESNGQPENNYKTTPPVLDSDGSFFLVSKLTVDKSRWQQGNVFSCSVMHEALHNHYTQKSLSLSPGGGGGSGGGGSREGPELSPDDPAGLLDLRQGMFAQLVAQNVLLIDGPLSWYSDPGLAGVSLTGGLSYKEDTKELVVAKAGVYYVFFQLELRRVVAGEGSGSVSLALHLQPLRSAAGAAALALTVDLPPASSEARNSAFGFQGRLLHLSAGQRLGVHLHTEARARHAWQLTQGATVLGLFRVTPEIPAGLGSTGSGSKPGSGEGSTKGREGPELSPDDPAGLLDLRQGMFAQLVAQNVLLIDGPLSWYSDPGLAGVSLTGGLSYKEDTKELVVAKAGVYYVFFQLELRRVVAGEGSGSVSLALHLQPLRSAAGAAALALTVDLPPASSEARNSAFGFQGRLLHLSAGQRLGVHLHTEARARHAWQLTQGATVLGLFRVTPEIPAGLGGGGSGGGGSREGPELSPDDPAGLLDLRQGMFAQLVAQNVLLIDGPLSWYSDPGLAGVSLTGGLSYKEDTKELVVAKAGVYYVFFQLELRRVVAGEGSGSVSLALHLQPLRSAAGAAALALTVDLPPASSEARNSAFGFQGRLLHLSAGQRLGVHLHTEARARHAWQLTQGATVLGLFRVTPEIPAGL

human 4-1BB = target: T3, human 4-1BB (human, UniProt Q07011 24-186, limits assumed); experiment: BLI (Octet), binder on AHC sensor, 400 nM human 4-1BB, 1:1 fit
T3 construct: Soluble antigen in Octet; construct not described

human PD-L1 = target: T4, human PD-L1 (human, UniProt Q9NZQ7 19-238); experiment: BLI (Octet), binder on AHC sensor, 20 nM human PD-L1, 1:1 fit
T4 construct: Soluble antigen in Octet; bought; also called human PD-L1 (Acro PD1-H5229)

human EGFR [1] = target: T5, human EGFR (human, UniProt P00533 25-645, limits assumed); experiment: BLI (Octet), binder on AHC sensor, 200 nM human EGFR, 1:1 fit
T5 construct: Soluble antigen in Octet; construct not described

human CD3 = target: B1; experiment: BLI (Octet), binder on AHC sensor, 100 nM human CD3, 1:1 fit
human EGFR [2] = target: T5, human EGFR; experiment: BLI (Octet), binder on AHC sensor, 200 nM human EGFR, 1:1 fit; molecule has two EGFR-binding domains, same value printed under D1 and D4
human HER3 = target: T6, human HER3 (human, UniProt P21860 20-643); experiment: BLI (Octet), binder on AHC sensor, 200 nM human HER3, 1:1 fit; molecule has two HER3-binding domains, same value printed under D2 and D5
T6 construct: Soluble antigen in Octet; bought; also called human HER3 (Acro ER3-H5223)

Binder	Kd (SI-49P9)	Kd (SI-75P4)	Kd (human 4-1BB)	Kd (human PD-L1)	Kd (human EGFR [1])	Kd (human CD3)	Kd (human EGFR [2])	Kd (human HER3)
B1	29.8 nM	22.7 nM						
B2			23.3 nM	3.25 nM	23.5 nM	26.1 nM		
B3						44.1 nM	6.22 nM	0.786 nM
